Data: paper PMC7561103, “Notch dimerization and gene dosage are important for normal heart development, intestinal stem cell maintenance, and splenic marginal zone B-cell homeostasis during mite infestation” (PLoS Biology, 2020)

Legend:
mouse RBPj (aa 53–474) = target: T1, mouse RBPj (aa 53–474) (mouse, UniProt P31266 53-474); test: native gel or EMSA; Notch transcription complexes assembled on fluorescent DNA probes with CSL sites (1.75 nM each probe); RBPj 2.5 to 640 nM in 4-fold steps, with or without N1ICD and MAML at 2 uM; native polyacrylamide gel; conditions: both partners purified
T1 construct: RBPj (CSL), mouse, residues 53-474; also called CSL
T1 sequence (P31266 53-474): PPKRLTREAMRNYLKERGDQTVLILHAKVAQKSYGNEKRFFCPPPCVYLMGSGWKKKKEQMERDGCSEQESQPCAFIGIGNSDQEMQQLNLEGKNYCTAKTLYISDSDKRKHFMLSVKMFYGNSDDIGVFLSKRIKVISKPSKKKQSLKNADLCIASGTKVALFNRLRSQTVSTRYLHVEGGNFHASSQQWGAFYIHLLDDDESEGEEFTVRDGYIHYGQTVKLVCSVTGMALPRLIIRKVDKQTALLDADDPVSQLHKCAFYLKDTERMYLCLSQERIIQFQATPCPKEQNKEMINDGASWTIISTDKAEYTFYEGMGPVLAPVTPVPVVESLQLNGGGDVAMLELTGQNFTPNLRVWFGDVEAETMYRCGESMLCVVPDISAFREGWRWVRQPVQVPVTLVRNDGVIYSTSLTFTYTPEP

[1] = target: the molecule itself; test: native gel or EMSA; 1xSPS probe; band intensities fitted to a 2-site binding model with cooperativity factor C (Kd,2nd = Kd,1st/C); RBPj 2.5 to 640 nM, N1ICD and MAML at 2 uM; association of two NTCs on DNA

| Binder | binding result (mouse RBPj (aa 53–474)) | fold stronger binding of the NTC to the second site than to the first site (cooperativity on 1xSPS) [1] |
| --- | --- | --- |
| human SMT3-MAML1 (aa 1–280) (domain or fragment, UniProt Q92585 1-280, looked up, Mastermind-like 1 (MAML1), human, residues 1-280; also called MAML protein; Mastermind-like) MVLPTCPMAEFALPRHSAVMERLRRRIELCRRHHSTCEARYEAVSPERLELERQHTFALHQRCIQAKAKRAGKHRQPPAATAPAPAAPAPRLDAADGPEHGRPATHLHDTVKRNLDSATSPQNGDQQNGYGDLFPGHKKTRREAPLGVAISSNGLPPASPLGQSDKPSGADALQSSGKHSLGLDSLNKKRLADSSLHLNGGSNPSESFPLSLNKELKQEPVEDLPCMITGTVGSISQSNLMPDLNLNEQEWKELIEELNRSVPDEDMKDLFNEDFEEKKD | binds | – |
| mouse N1ICD (aa 1744–2113) (domain or fragment, UniProt Q01705 1744-2113, looked up, Notch1 intracellular domain (RAM-ANK), mouse, residues 1744-2113; also called N1 RAM-ANK domain; WT N1ICD) VLLSRKRRRQHGQLWFPEGFKVSEASKKKRREPLGEDSVGLKPLKNASDGALMDDNQNEWGDEDLETKKFRFEEPVVLPDLSDQTDHRQWTQQHLDAADLRMSAMAPTPPQGEVDADCMDVNVRGPDGFTPLMIASCSGGGLETGNSEEEEDAPAVISDFIYQGASLHNQTDRTGETALHLAARYSRSDAAKRLLEASADANIQDNMGRTPLHAAVSADAQGVFQILLRNRATDLDARMHDGTTPLILAARLAVEGMLEDLINSHADVNAVDDLGKSALHWAAAVNNVDAAVVLLKNGANKDMQNNKEETPLFLAAREGSYETAKVLLDHFANRDITDHMDRLPRDIAQERMHHDIVRLLDEYNLVRSPQ | binds | 5 fold |
| mouse N1^RAICD (aa 1744–2113) (domain or fragment, UniProt Q01705 1744-2113, looked up, Notch1 intracellular domain (RAM-ANK), mouse, residues 1744-2113, with Arg1974 in the ANK domain changed to alanine; also called RA mutant; N1^R1974A) VLLSRKRRRQHGQLWFPEGFKVSEASKKKRREPLGEDSVGLKPLKNASDGALMDDNQNEWGDEDLETKKFRFEEPVVLPDLSDQTDHRQWTQQHLDAADLRMSAMAPTPPQGEVDADCMDVNVRGPDGFTPLMIASCSGGGLETGNSEEEEDAPAVISDFIYQGASLHNQTDRTGETALHLAARYSRSDAAKRLLEASADANIQDNMGRTPLHAAVSADAQGVFQILLRNAATDLDARMHDGTTPLILAARLAVEGMLEDLINSHADVNAVDDLGKSALHWAAAVNNVDAAVVLLKNGANKDMQNNKEETPLFLAAREGSYETAKVLLDHFANRDITDHMDRLPRDIAQERMHHDIVRLLDEYNLVRSPQ | binds | – |
